Results taken from patent US20200332015A1 (NAMAB THERAPEUTICS, published 2020).

B1: PRO1186 (37-20-B03 sc01 / 38-02-A04 sc01 / 23-13-A01 sc03, scDb-scFv) (other)
chain: DIQMTQSPSSLSASVGDRVTITCQASQSIGTYLAWYQQKPGKAPKLLIYRAFILASGVPSRFSGSGSGTDFTLTISSLQPEDFATYYCQSNFYSDSTTIGPNAFGTGTKVTVLGGGGGSQVQLQESGPGLVKPSETLSLTCKVSGFSFSNSYWICWIRQPPGKGLEWIGCTFVGSSDSTYYANWAKGRVTISVDSSKNQFSLKLSSVTAADTAVYYCARHPSDAVYGYANNLWGQGTLVTVSSGGGGSGGGGSGGGGSGGGGSIQMTQSPSSLSASVGDRVTITCQASQSINNVLAWYQQKPGKAPKLLIYRASTLASGVPSRFSGSGSGTDFTLTISSLQPEDFATYYCQSSYGNYGDFGTGTKVTVLGGGGGSQVQLQESGPGLVKPSETLSLTCKVSGFSFNSDYWIYWIRQPPGKGLEWIGSIYGGSSGNTQYASWAQGRVTISVDSSKNQFSLKLSSVTAADTAVYYCARGYVDYGGATDLWGQGTLVTVSSGGGGSGGGGSVVMTQSPSSLSASVGDRVTITCQASQIISSRSAWYQQKPGQPPKLLIYQASKLASGVPSRFSGSGSGTDFTLTISSLQPEDFATYYCQCTYIDSNFGAFGGGTKLTVLGGGGGSGGGGSGGGGSGGGGSEVQLVESGGGLVQPGGSLRLSCAASGFSFSSSYWICWVRQAPGKGLEWVGCVFTGDGTTYYASWAKGRFTISRDNSKNTVYLQMNSLRAEDTATYFCARPVSVYYYGMDLWGQGTLVTVSS
notes: Trispecific scDb-scFv
B2: PRO1057 (38_02_A04 sc01 scDb-i/33-03-G02 sc01 scDb-o/mxr HSA (23-13-A01-sc03, sk17sh4)) (other)
chain: DIQMTQSPSSLSASVGDRVTITCQASQSINDYLAWYQQKPGKAPKLLIYKASTLASGVPSRFSGSGSGTDFTLTISSLQPEDFATYYCQQGYIITDIDNVFGTGTKVTVLGGGGGSQVQLQESGPGLVKPSETLSLTCKVSGFSFSNSYWICWIRQPPGKGLEWIGCTFVGSSDSTYYANWAKGRVTISVDSSKNQFSLKLSSVTAADTAVYYCARHPSDAVYGYANNLWGQGTLVTVSSGGGGSGGGGSGGGGSGGGGSIQMTQSPSSLSASVGDRVTITCQASQSINNVLAWYQQKPGKAPKLLIYRASTLASGVPSRFSGSGSGTDFTLTISSLQPEDFATYYCQSSYGNYGDFGTGTKVTVLGGGGGSQVQLQESGPGLVKPSETLSLTCKVSGFSFSSGYDMCWIRQPPGKGLEWIGCVVAGSVDITYYASWAKGRVTISVDSSKNQFSLKLSSVTAADTAVYYCARKDAYSDAFNLWGQGTLVTVSSGGGGSGGGGSVVMTQSPSSLSASVGDRVTITCQASQIISSRSAWYQQKPGQPPKLLIYQASKLASGVPSRFSGSGSGTDFTLTISSLQPEDFATYYCQCTYIDSNFGAFGGGTKLTVLGGGGGSGGGGSGGGGSGGGGSEVQLVESGGGLVQPGGSLRLSCAASGFSFSSSYWICWVRQAPGKGLEWVGCVFTGDGTTYYASWAKGRFTISRDNSKNTVYLQMNSLRAEDTATYFCARPVSVYYYGMDLWGQGTLVTVSS
notes: Trispecific scDb-scFv
B3: PRO1059 (33-03-G02 IgG1 LC with 38_02_A04 sc01 scFv, PDL1/CD137(scFv) silent Morrison) (bispecific antibody)
light: DIQMTQSPSSLSASVGDRVTITCQASQSINDYLAWYQQKPGKAPKLLIYKASTLASGVPSRFSGSGSGTDFTLTISSLQPEDFATYYCQQGYIITDIDNVFGTGTKVTVLGTVAAPSVFIFPPSDEQLKSGTASVVCLLNNFYPREAKVQWKVDNALQSGNSQESVTEQDSKDSTYSLSSTLTLSKADYEKHKVYACEVTHQGLSSPVTKSFNRGECGGGGSGGGGSIQMTQSPSSLSASVGDRVTITCQASQSINNVLAWYQQKPGKAPKLLIYRASTLASGVPSRFSGSGSGTDFTLTISSLQPEDFATYYCQSSYGNYGDFGTGTKVTVLGGGGGSGGGGSGGGGSGGGGSQVQLQESGPGLVKPSETLSLTCKVSGFSFSNSYWICWIRQPPGKGLEWIGCTFVGSSDSTYYANWAKGRVTISVDSSKNQFSLKLSSVTAADTAVYYCARHPSDAVYGYANNLWGQGTLVTVSS
heavy: QVQLQESGPGLVKPSETLSLTCKVSGFSFSSGYDMCWIRQPPGKGLEWIGCVVAGSVDITYYASWAKGRVTISVDSSKNQFSLKLSSVTAADTAVYYCARKDAYSDAFNLWGQGTLVTVSSASTKGPSVFPLAPSSKSTSGGTAALGCLVKDYFPEPVTVSWNSGALTSGVHTFPAVLQSSGLYSLSSVVTVPSSSLGTQTYICNVNHKPSNTKVDKRVEPKSCDKTHTCPPCPAPEAAGGPSVFLFPPKPKDTLMISRTPEVTCVVVDVSHEDPEVKFNWYVDGVEVHNAKTKPREEQYNSTYRVVSVLTVLHQDWLNGKEYKCKVSNKALGAPIEKTISKAKGQPREPQVYTLPPSREEMTKNQVSLTCLVKGFYPSDIAVEWESNGQPENNYKTTPPVLDSDGSFFLYSKLTVDKSRWQQGNVFSCSVMHEALHNHYTQKSLSLSPGK
notes: IgG1 with scFv fused to the light chain; also called Morrison-L

Experiments:
[1] = target: T1, human CD137 expressed on Jurkat cells (human, UniProt Q07011 24-255); experiment: cell-based or functional assay
[2] = target: T2, Fc tagged human CD137 (R&D Systems, cat. 838-4B-100) (human, UniProt Q07011 24-186); experiment: SPR T200, antigen-Fc captured, molecule as analyte
T2 construct: also called CD137 Fc chimera; human CD137-Fc chimeric protein
Experimental: (§1) Affinity to PDL1 of the different species was determined by SPR measurements using a Biacore T200 device (GE Healthcare). An antibody specific for the Fc region of human IgGs was immobilized on a sensor chip (CM5 sensor chip, GE Healthcare) by amine-coupling. For all formats, with the exception of the Fc containing Morrison formats, PDL1-Fc chimeric protein from different species were captured by the immobilized antibody. Three-fold serial dilutions of the molecules specific for PDL1 (0.12-90 nM) were injected into the flow cells for three minutes and dissociation was monitored for 10 minutes. After each injection cycle, surfaces were regenerated with one injection of a 3 M MgCl₂ solution. The apparent dissociation (kd) and association (kₐ) rate constants and the apparent dissociation equilibrium constant (KD) were calculated using one-to-one Langmuir binding model. Affinity to CD137 of the different species was determined using the identical setup as for PDL1 with the exception that CD137-Fc chimeric proteins from different species were captured by the immobilized antibody.

[3] = target: human PDL1-Fc chimeric protein (human, UniProt Q9NZQ7 19-238, limits assumed); experiment: SPR T200, antigen-Fc captured, molecule as analyte
Experimental: as §1

mouse serum albumin = target: T3, mouse serum albumin (mouse, UniProt P07724 25-608); experiment: SPR T200, SA coupled to chip, pH 5.5
T3 construct: also called mouse SA; MSA
Experimental: (§2) Affinity of molecules to serum albumin (SA) of the different species was determined by SPR measurements using a Biacore T200 device (GE Healthcare). SA was directly coupled to a CM5 sensor chip (GE Healthcare) using amine coupling chemistry. […] The assay was run in a 1×PBS-Tween buffer at pH 5.5.

human serum albumin = target: T4, human serum albumin (human, UniProt P02768 25-609); experiment: SPR T200, SA coupled to chip, pH 5.5
T4 construct: also called human SA; HSA
Experimental: as §2

[4] = target: T1, human CD137 expressed on Jurkat cells; experiment: cell-based or functional assay; remark: listed apart in the source
[5] = target: T5, mouse Fc-tagged mouse CD137 (R&D Systems, cat. 937-4B-050) (mouse, UniProt P20334 24-187); experiment: SPR T200, antigen-Fc captured, molecule as analyte
T5 construct: also called mouse CD137-Fc chimeric protein
T5 sequence (looked up): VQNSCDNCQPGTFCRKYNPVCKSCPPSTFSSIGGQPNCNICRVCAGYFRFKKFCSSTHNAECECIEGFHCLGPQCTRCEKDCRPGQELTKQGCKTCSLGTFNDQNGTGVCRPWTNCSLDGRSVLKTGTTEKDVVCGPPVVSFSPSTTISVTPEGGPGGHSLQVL
Experimental: as §1

[6] = target: T6, cynomolgus monkey Fc-tagged CD137 (R&D Systems, cat. 9324-4B-100) (cynomolgus monkey, UniProt A9YYE7 24-186); experiment: SPR T200, antigen-Fc captured, molecule as analyte
T6 construct: also called cynomolgus CD137-Fc chimeric protein
T6 sequence (A9YYE7 entry or part of it): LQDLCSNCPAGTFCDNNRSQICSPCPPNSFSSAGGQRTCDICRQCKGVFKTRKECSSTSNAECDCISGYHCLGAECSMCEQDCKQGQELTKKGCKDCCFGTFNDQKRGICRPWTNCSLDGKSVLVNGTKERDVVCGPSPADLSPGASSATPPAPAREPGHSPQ
Experimental: as §1

[7] = target: T1, human CD137 expressed on Jurkat cells; experiment: cell-based or functional assay; remark: listed apart in the source
[8] = target: T1, human CD137 expressed on Jurkat cells; experiment: cell-based or functional assay; remark: listed apart in the source
[9] = target: T7, human PDL1 extracellular domain (human, UniProt Q9NZQ7 19-238); experiment: SPR T200, Morrison format captured, ECD analyte
T7 construct: extracellular domain; Analyte for the Fc containing Morrison formats
Experimental: as §1
(§3) The Fc containing formats were directly captured by the antibody specific for the Fc region of human IgGs. Two-fold serial dilutions of PDL1 extracellular domain or CD137 extracellular domain ranging from 90 to 0.35 nM were tested for binding to the IgG captured on the biosensor chip. After each injection cycle, surfaces were regenerated with one injection of a 3 M MgCl2 solution.

[10] = target: T8, recombinant human CD137 extracellular domain (Peprotech, cat. 310-15-1MG) (human, UniProt Q07011 24-186); experiment: SPR T200, Morrison format captured, ECD analyte
T8 construct: also called human CD137 ECD; CD137 ECD
Experimental: as §1, §3

Binder | max. activation, HCC827 +IFNg, 24h [1] [%] | max. activation, NF-kB reporter gene, CHO-PD-L1, 24h [1] [%] | rel. IC50 (urelumab/test), HCC827 +IFNg, 24h [1] [ratio] | rel. IC50 (urelumab/test), NF-kB reporter gene, CHO-PD-L1, 24h [1] [ratio] | Kd [2] [nM] | koff [2] [s⁻¹] | kon [2] [M⁻¹ s⁻¹] | Kd [3] [nM] | koff [3] [s⁻¹] | kon [3] [M⁻¹ s⁻¹] | Kd (mouse serum albumin) [nM] | koff (mouse serum albumin) [s⁻¹] | kon (mouse serum albumin) [M⁻¹ s⁻¹] | Kd (human serum albumin) [nM] | koff (human serum albumin) [s⁻¹] | kon (human serum albumin) [M⁻¹ s⁻¹] | further results
B1 | 129 | 152 | 1.88 | 0.97 | 2.6 | 0.0005 | 190000 | 0.0037 | 2.3e-05 | 6.2e+06 | 43 | 0.0095 | 220000 | 2.9 | 0.00072 | 250000 | –
B2 | 135 | 663 | 0.46 | 0.1 | 5.1 | 0.0007 | 140000 | 0.11 | 0.00017 | 1.6e+06 | 66 | 0.0085 | 130000 | 2.8 | 0.00067 | 240000 | EC50 NFkB-luciferase, CHO-PDL1 cells, 6 h, + HSA [4]: 0.112 µg/mL; Top of curve fit, NFkB-luciferase, CHO-PDL1 cells, 6 h, + HSA [4]: 463; rel. IC50 (urelumab/test), HCC827 -IFNg, 24h [1]: 0.62 ratio; Kd [5]: 1200 nM; koff [5]: 0.085 s⁻¹; kon [5]: 69000 M⁻¹ s⁻¹; Kd [6]: 4.8 nM; koff [6]: 0.00079 s⁻¹; kon [6]: 160000 M⁻¹ s⁻¹; EC50 NFkB-luciferase, CHO-PDL1 cells, 24 h, + HBA (so in the source) [7]: 0.792 µg/mL; Top of curve fit, NFkB-luciferase, CHO-PDL1 cells, 24 h, + HBA (so in the source) [7]: 745; EC50 NFkB-luciferase, HCC827 with IFNy stimulation, +HSA [8]: 0.115 µg/mL; EC50 NFkB-luciferase, HCC827 without IFNy stimulation, +HSA [8]: 0.0766 µg/mL
B3 | – | 189 | – | 0.09 | – | – | – | – | – | – | – | – | – | – | – | – | Kd [9]: 0.056 nM; koff [9]: 6.5e-05 s⁻¹; kon [9]: 1.2e+06 M⁻¹ s⁻¹; Kd [10]: 2.3 nM; koff [10]: 0.00042 s⁻¹; kon [10]: 180000 M⁻¹ s⁻¹
